Test results reported in US20250051802.

Tested on: SluCas9
Assay: cell_activity
Settings: amplicon sequencing, HEK 293T

**Q.** Which activity (PAM NNGG (CGGGGT)) does the source give for “CCAUUCCCUCUUUAGCCAGAG / CCATTCCCTCTTTAGCCAGAGCGGGGT / ACCCCGCTCTGGCTAAAGAGGGAATGG [pBLR194 guide spacer ; pBLR194 target with PAM]” here?
**A.** 65.7%

**Q.** With “GGCCGGCGGCGGACAGUGGAC / GGCCGGCGGCGGACAGTGGACGCGGCGGC / GCCGCCGCGTCCACTGTCCGCCGCCGGCC [pBLR179 guide spacer ; pBLR179 target with PAM]” as the sequence, how does the activity (PAM NNGG (GCGGCGGC)) read?
**A.** 72.8%

**Q.** “UGCCCUGUGGGGCAAGGUGAA / TGCCCTGTGGGGCAAGGTGAAGTGGAT / ATCCACTTCACCTTGCCCCACAGGGCA [pBLR197 guide spacer ; pBLR197 target with PAM]” was tested. Which activity (PAM NNGG (GTGGAT)) did it give?
**A.** 1.9%
